Numbered stars: 1 amine (or outer) side, 2 acyl side, 3 side chain; on linkers, the order of the positions; unused ones are H or OH. Square brackets hold non-standard residues; d marks the D form. Side chains are listed from the residue outwards. * marks the point of attachment. C20 diacid = O=C(O)CCCCCCCCCCCCCCCCCCC(=O)*; C18 diacid = O=C(O)CCCCCCCCCCCCCCCCC(=O)*; γGlu = O=C(O)[C@H](CCC(=O)[*:2])N[*:1]; Stearoyl = CCCCCCCCCCCCCCCCCC(=O)*; AEEA = NCCOCCOCC(=O)O; Aib = CC(C)(N)C(=O)O
T1: human GLP-2 receptor (hGLP2-R) (human, UniProt O95838)
T1 sequence: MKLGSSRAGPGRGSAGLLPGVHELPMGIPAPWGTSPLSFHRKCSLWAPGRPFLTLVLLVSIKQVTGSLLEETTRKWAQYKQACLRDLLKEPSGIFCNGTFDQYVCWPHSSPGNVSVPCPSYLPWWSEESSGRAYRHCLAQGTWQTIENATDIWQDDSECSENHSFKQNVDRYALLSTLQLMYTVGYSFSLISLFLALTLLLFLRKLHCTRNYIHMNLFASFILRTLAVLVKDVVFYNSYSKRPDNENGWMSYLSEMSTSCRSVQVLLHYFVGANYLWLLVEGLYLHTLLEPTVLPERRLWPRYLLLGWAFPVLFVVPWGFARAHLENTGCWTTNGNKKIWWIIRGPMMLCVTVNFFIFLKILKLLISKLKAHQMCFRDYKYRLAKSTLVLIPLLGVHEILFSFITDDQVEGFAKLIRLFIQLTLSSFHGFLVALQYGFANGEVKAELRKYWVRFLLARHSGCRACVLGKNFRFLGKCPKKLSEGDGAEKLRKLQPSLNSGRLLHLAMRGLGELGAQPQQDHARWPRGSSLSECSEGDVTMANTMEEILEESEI


What was measured:
[1] = molecular target: human glucagon-like peptide 1 receptor (GLP-1R) (human, UniProt P43220); test: cell-based or functional assay
[2] = molecular target: T1, human GLP-2 receptor (hGLP2-R); test: cell-based or functional assay

| Binder | EC50 GLP-1 (nM), cAMP AlphaScreen [1] [nM] | EC50 GLP-2 (nM), cAMP AlphaScreen [2] [nM] |
| --- | --- | --- |
| H-H[Aib]EGSFTSELATILDK(Stearoyl)QAARDFIAWLIQYKITD-OH (SMILES CCCCCCCCCCCCCCCCCC(=O)NCCCC[C@H](NC(=O)[C@H](CC(=O)O)NC(=O)[C@H](CC(C)C)NC(=O)[C@@H](NC(=O)[C@@H](NC(=O)[C@H](C)NC(=O)[C@H](CC(C)C)NC(=O)[C@H](CCC(=O)O)NC(=O)[C@H](CO)NC(=O)[C@@H](NC(=O)[C@H](Cc1ccccc1)NC(=O)[C@H](CO)NC(=O)CNC(=O)[C@H](CCC(=O)O)NC(=O)C(C)(C)NC(=O)[C@@H](N)Cc1c[nH]cn1)[C@@H](C)O)[C@@H](C)O)[C@@H](C)CC)C(=O)N[C@@H](CCC(N)=O)C(=O)N[C@@H](C)C(=O)N[C@@H](C)C(=O)N[C@@H](CCCNC(=N)N)C(=O)N[C@@H](CC(=O)O)C(=O)N[C@@H](Cc1ccccc1)C(=O)N[C@H](C(=O)N[C@@H](C)C(=O)N[C@@H](Cc1c[nH]c2ccccc12)C(=O)N[C@@H](CC(C)C)C(=O)N[C@H](C(=O)N[C@@H](CCC(N)=O)C(=O)N[C@@H](Cc1ccc(O)cc1)C(=O)N[C@@H](CCCCN)C(=O)N[C@H](C(=O)N[C@H](C(=O)N[C@@H](CC(=O)O)C(=O)O)[C@@H](C)O)[C@@H](C)CC)[C@@H](C)CC)[C@@H](C)CC) [Compound 36] | 0.32 | 3.2 |
| H-H[Aib]EGTFSSELATILDEQAARDFIAWLIAHKITD[dK][dK][dK][dK][dK][dK]([γGlu-C18 diacid])-NH2 (SMILES CC[C@H](C)[C@H](NC(=O)[C@H](CC(C)C)NC(=O)[C@H](Cc1c[nH]c2ccccc12)NC(=O)[C@H](C)NC(=O)[C@@H](NC(=O)[C@H](Cc1ccccc1)NC(=O)[C@H](CC(=O)O)NC(=O)[C@H](CCCNC(=N)N)NC(=O)[C@H](C)NC(=O)[C@H](C)NC(=O)[C@H](CCC(N)=O)NC(=O)[C@H](CCC(=O)O)NC(=O)[C@H](CC(=O)O)NC(=O)[C@H](CC(C)C)NC(=O)[C@@H](NC(=O)[C@@H](NC(=O)[C@H](C)NC(=O)[C@H](CC(C)C)NC(=O)[C@H](CCC(=O)O)NC(=O)[C@H](CO)NC(=O)[C@H](CO)NC(=O)[C@H](Cc1ccccc1)NC(=O)[C@@H](NC(=O)CNC(=O)[C@H](CCC(=O)O)NC(=O)C(C)(C)NC(=O)[C@@H](N)Cc1c[nH]cn1)[C@@H](C)O)[C@@H](C)O)[C@@H](C)CC)[C@@H](C)CC)C(=O)N[C@@H](C)C(=O)N[C@@H](Cc1c[nH]cn1)C(=O)N[C@@H](CCCCN)C(=O)N[C@H](C(=O)N[C@H](C(=O)N[C@@H](CC(=O)O)C(=O)N[C@H](CCCCN)C(=O)N[C@H](CCCCN)C(=O)N[C@H](CCCCN)C(=O)N[C@H](CCCCN)C(=O)N[C@H](CCCCN)C(=O)N[C@H](CCCCNC(=O)CC[C@H](NC(=O)CCCCCCCCCCCCCCCCC(=O)O)C(=O)O)C(N)=O)[C@@H](C)O)[C@@H](C)CC) [Compound 38] | 0.25 | 0.89 |
| H-H[Aib]EGTFTSELATILDEQAARDFIAWLIAHKITD[dK][dK][dK][dK][dK][dK]([γGlu-C18 diacid])-NH2 (SMILES CC[C@H](C)[C@H](NC(=O)[C@H](CC(C)C)NC(=O)[C@H](Cc1c[nH]c2ccccc12)NC(=O)[C@H](C)NC(=O)[C@@H](NC(=O)[C@H](Cc1ccccc1)NC(=O)[C@H](CC(=O)O)NC(=O)[C@H](CCCNC(=N)N)NC(=O)[C@H](C)NC(=O)[C@H](C)NC(=O)[C@H](CCC(N)=O)NC(=O)[C@H](CCC(=O)O)NC(=O)[C@H](CC(=O)O)NC(=O)[C@H](CC(C)C)NC(=O)[C@@H](NC(=O)[C@@H](NC(=O)[C@H](C)NC(=O)[C@H](CC(C)C)NC(=O)[C@H](CCC(=O)O)NC(=O)[C@H](CO)NC(=O)[C@@H](NC(=O)[C@H](Cc1ccccc1)NC(=O)[C@@H](NC(=O)CNC(=O)[C@H](CCC(=O)O)NC(=O)C(C)(C)NC(=O)[C@@H](N)Cc1c[nH]cn1)[C@@H](C)O)[C@@H](C)O)[C@@H](C)O)[C@@H](C)CC)[C@@H](C)CC)C(=O)N[C@@H](C)C(=O)N[C@@H](Cc1c[nH]cn1)C(=O)N[C@@H](CCCCN)C(=O)N[C@H](C(=O)N[C@H](C(=O)N[C@@H](CC(=O)O)C(=O)N[C@H](CCCCN)C(=O)N[C@H](CCCCN)C(=O)N[C@H](CCCCN)C(=O)N[C@H](CCCCN)C(=O)N[C@H](CCCCN)C(=O)N[C@H](CCCCNC(=O)CC[C@H](NC(=O)CCCCCCCCCCCCCCCCC(=O)O)C(=O)O)C(N)=O)[C@@H](C)O)[C@@H](C)CC) [Compound 39] | 0.044 | 0.98 |
| H-H[Aib]EGSFTSELATILDEQAARDFIAWLIEHKITD[dK][dK][dK][dK][dK][dK]([γGlu-C18 diacid])-NH2 (SMILES CC[C@H](C)[C@H](NC(=O)[C@H](Cc1ccccc1)NC(=O)[C@H](CC(=O)O)NC(=O)[C@H](CCCNC(=N)N)NC(=O)[C@H](C)NC(=O)[C@H](C)NC(=O)[C@H](CCC(N)=O)NC(=O)[C@H](CCC(=O)O)NC(=O)[C@H](CC(=O)O)NC(=O)[C@H](CC(C)C)NC(=O)[C@@H](NC(=O)[C@@H](NC(=O)[C@H](C)NC(=O)[C@H](CC(C)C)NC(=O)[C@H](CCC(=O)O)NC(=O)[C@H](CO)NC(=O)[C@@H](NC(=O)[C@H](Cc1ccccc1)NC(=O)[C@H](CO)NC(=O)CNC(=O)[C@H](CCC(=O)O)NC(=O)C(C)(C)NC(=O)[C@@H](N)Cc1c[nH]cn1)[C@@H](C)O)[C@@H](C)O)[C@@H](C)CC)C(=O)N[C@@H](C)C(=O)N[C@@H](Cc1c[nH]c2ccccc12)C(=O)N[C@@H](CC(C)C)C(=O)N[C@H](C(=O)N[C@@H](CCC(=O)O)C(=O)N[C@@H](Cc1c[nH]cn1)C(=O)N[C@@H](CCCCN)C(=O)N[C@H](C(=O)N[C@H](C(=O)N[C@@H](CC(=O)O)C(=O)N[C@H](CCCCN)C(=O)N[C@H](CCCCN)C(=O)N[C@H](CCCCN)C(=O)N[C@H](CCCCN)C(=O)N[C@H](CCCCN)C(=O)N[C@H](CCCCNC(=O)CC[C@H](NC(=O)CCCCCCCCCCCCCCCCC(=O)O)C(=O)O)C(N)=O)[C@@H](C)O)[C@@H](C)CC)[C@@H](C)CC) [Compound 40] | 0.074 | 0.5 |
| H-H[Aib]EGTFTSELATILDK([γGlu-C20 diacid])QAARDFIAWLIQHKITD-OH (SMILES CC[C@H](C)[C@H](NC(=O)[C@H](Cc1ccccc1)NC(=O)[C@H](CC(=O)O)NC(=O)[C@H](CCCNC(=N)N)NC(=O)[C@H](C)NC(=O)[C@H](C)NC(=O)[C@H](CCC(N)=O)NC(=O)[C@H](CCCCNC(=O)CC[C@H](NC(=O)CCCCCCCCCCCCCCCCCCC(=O)O)C(=O)O)NC(=O)[C@H](CC(=O)O)NC(=O)[C@H](CC(C)C)NC(=O)[C@@H](NC(=O)[C@@H](NC(=O)[C@H](C)NC(=O)[C@H](CC(C)C)NC(=O)[C@H](CCC(=O)O)NC(=O)[C@H](CO)NC(=O)[C@@H](NC(=O)[C@H](Cc1ccccc1)NC(=O)[C@@H](NC(=O)CNC(=O)[C@H](CCC(=O)O)NC(=O)C(C)(C)NC(=O)[C@@H](N)Cc1c[nH]cn1)[C@@H](C)O)[C@@H](C)O)[C@@H](C)O)[C@@H](C)CC)C(=O)N[C@@H](C)C(=O)N[C@@H](Cc1c[nH]c2ccccc12)C(=O)N[C@@H](CC(C)C)C(=O)N[C@H](C(=O)N[C@@H](CCC(N)=O)C(=O)N[C@@H](Cc1c[nH]cn1)C(=O)N[C@@H](CCCCN)C(=O)N[C@H](C(=O)N[C@H](C(=O)N[C@@H](CC(=O)O)C(=O)O)[C@@H](C)O)[C@@H](C)CC)[C@@H](C)CC) [Compound 41] | 0.048 | 0.62 |
| H-H[Aib]EGSFTSEK([AEEA-AEEA-γGlu-C20 diacid])ATILDEQAARDFIAWLIEHKITD-OH [Compound 42] | 0.067 | 0.33 |
| H-H[Aib]EGSFTSELATILDK([AEEA-AEEA-γGlu-C20 diacid])KAARDFIAWLIEHKITD-OH (SMILES CC[C@H](C)[C@H](NC(=O)[C@H](Cc1ccccc1)NC(=O)[C@H](CC(=O)O)NC(=O)[C@H](CCCNC(=N)N)NC(=O)[C@H](C)NC(=O)[C@H](C)NC(=O)[C@H](CCCCN)NC(=O)[C@H](CCCCNC(=O)COCCOCCNC(=O)COCCOCCNC(=O)CC[C@H](NC(=O)CCCCCCCCCCCCCCCCCCC(=O)O)C(=O)O)NC(=O)[C@H](CC(=O)O)NC(=O)[C@H](CC(C)C)NC(=O)[C@@H](NC(=O)[C@@H](NC(=O)[C@H](C)NC(=O)[C@H](CC(C)C)NC(=O)[C@H](CCC(=O)O)NC(=O)[C@H](CO)NC(=O)[C@@H](NC(=O)[C@H](Cc1ccccc1)NC(=O)[C@H](CO)NC(=O)CNC(=O)[C@H](CCC(=O)O)NC(=O)C(C)(C)NC(=O)[C@@H](N)Cc1c[nH]cn1)[C@@H](C)O)[C@@H](C)O)[C@@H](C)CC)C(=O)N[C@@H](C)C(=O)N[C@@H](Cc1c[nH]c2ccccc12)C(=O)N[C@@H](CC(C)C)C(=O)N[C@H](C(=O)N[C@@H](CCC(=O)O)C(=O)N[C@@H](Cc1c[nH]cn1)C(=O)N[C@@H](CCCCN)C(=O)N[C@H](C(=O)N[C@H](C(=O)N[C@@H](CC(=O)O)C(=O)O)[C@@H](C)O)[C@@H](C)CC)[C@@H](C)CC) [Compound 43] | 0.096 | 0.15 |
